Residue numbers refer to the chain shown, from its start.
T1: IL-5Rα (human, UniProt Q01344)
T1 chain: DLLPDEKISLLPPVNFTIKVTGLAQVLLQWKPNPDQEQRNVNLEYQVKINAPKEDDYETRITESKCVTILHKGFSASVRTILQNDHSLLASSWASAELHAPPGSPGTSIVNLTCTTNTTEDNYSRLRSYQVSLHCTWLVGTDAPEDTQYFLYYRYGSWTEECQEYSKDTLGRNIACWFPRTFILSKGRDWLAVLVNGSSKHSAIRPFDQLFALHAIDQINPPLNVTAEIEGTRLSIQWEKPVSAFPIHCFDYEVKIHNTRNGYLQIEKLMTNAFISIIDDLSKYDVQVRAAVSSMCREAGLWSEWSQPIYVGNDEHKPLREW

B1: IL-5Rα×CD3ε BiTE(L)/scFv-Fc (IL-5Rα arm) (antibody, V domains shown)
VH: QVQLVQSGAEVKKPGSSVKVSCKASGYTFTSYWINWVRQAPGQGLEWIGHIYPNKNENYYNHKFKDKATLTVDKSTNTAYMELSSLRSEDTAVYYCTREFYGRQYYQAMDYWGQGTTLTVSS
VL: DIQMTQSPSTLSASVGDRVTITCKASQNVGTAVAWYQQKPGKAPKLLIYWASTRHTGVPDRFSGSGSGTDFTLTISSLQPDDFATYYCQQFGRYPYTFGSGTKVEVK
B2: IL-5Rα×CD3ε Diabody-Fc (IL-5Rα arm) (antibody, V domains shown)
VH: B1 VH
VL: B1 VL
B3: IL-5Rα×CD3ε scFv(L)/scFv-Fc (IL-5Rα arm) (antibody, V domains shown)
VH: B1 VH
VL: B1 VL
B4: IL-5Rα×CD3ε IgG analog (IL-5Rα arm) (antibody, V domains shown)
VH: B1 VH
VL: B1 VL
B5: IL-5Rα×CD3ε scFv(L)/scFv-Fc (CD3ε arm) (antibody, V domains shown)
VH: EVQLVESGGGLVQPKGSLKLSCAASGFTFNTYAMNWVRQAPGKGLEWVARIRSKYNNYATYYADSVKDRFTISRDDSQSILYLQMNNLKTEDTAMYYCVRHGNFGNSYVSWFAYWGQGTLVTVSS
VL: QAVVTQESALTTSPGETVTLTCRSSTGAVTTSNYANWVQEKPDHLFTGLIGGTNKRAPGVPARFSGSLIGDKAALTITGAQTEDEAIYFCALWYSNLWVFGGGTKLTVL
B6: IL-5Rα×CD3ε IgG analog (CD3ε arm) (antibody, V domains shown)
VH: B5 VH
VL: B5 VL
B7: IL-5Rα×CD3ε Diabody-Fc (CD3ε arm) (antibody, V domains shown)
VH: B5 VH
VL: B5 VL
B8: IL-5Rα×CD3ε BiTE(L)/scFv-Fc (CD3ε arm) (antibody, V domains shown)
VH: B5 VH
VL: B5 VL
B9: Benralizumab (antibody, V domains shown)
VH: EVQLVQSGAEVKKPGASVKVSCKASGYTFTSYVIHWVRQRPGQGLAWMGYINPYNDGTKYNERFKGKVTITSDRSTSTVYMELSSLRSEDTAVYLCGREGIRYYGLLGDYWGQGTLVTVSS
VL: DIQMTQSPSSLSASVGDRVTITCGTSEDIINYLNWYQQKPGKAPKLLIYHTSRLQSGVPSRFSGSGSGTDFTLTISSLQPEDFATYYCQQGYTLPYTFGQGTKVEIK
B10: 5R65 (antibody, V domains shown)
VH: B1 VH with E99D, F100Y, Q104S, Q107Y
VL: B1 VL
B11: 5R65.7 (antibody, V domains shown)
VH: B1 VH
VL: B1 VL

Molecular target: T1, IL-5Rα
Experiment: BLI

Row | Kd [nM] | Binder
1 | 22.9 | B1
2 | 123 | B2
3 | 59.8 | B3
4 | 30.5 | B4

These binders were tested against CD3ε (human, UniProt P07766) (assay: BLI).
Sequence of CD3ε (P07766 23-207): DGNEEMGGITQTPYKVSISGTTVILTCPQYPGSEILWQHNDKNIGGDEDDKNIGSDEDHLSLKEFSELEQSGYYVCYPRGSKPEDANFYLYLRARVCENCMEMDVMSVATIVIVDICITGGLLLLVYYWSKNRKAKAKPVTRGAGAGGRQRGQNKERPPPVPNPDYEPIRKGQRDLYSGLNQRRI

Row | Kd [nM] | Binder
5 | 3.61 | B5
6 | 1.71 | B6
7 | 8.41 | B7
8 | 4.62 | B8

Molecular target: T1, IL-5Rα
Experiment: not given

Row | Kd [nM] | Binder
9 | 26.8 | B9
10 | 14.5 | B10
11 | 4.64 | B11
